Broadly, the EC50 is the concentration giving half of the maximal effect. The term Kd denotes the concentration at which binding is half-saturated. By koff is commonly meant a measure of how fast the partners let go of each other. Usually kon stands for a measure of how fast the partners come together.

The target of experiment [1] is T1, human BTLA on cells (stably transfected 293c18 cells; human peripheral blood T and B cells) (human, UniProt Q7Z6A9 31-289).
T1 construct: whole, on cells; the cells are named under assay; also called cell surface BTLA; full-length human BTLA
Nature of the experiment: flow cytometry (MFI DyL650) on gated CD8+ T cells of human PBMC, DyLight 650-labelled antibody, three-parameter fit [middle panel (Naive CD8+ T cells]. As for the experimental part:
Human peripheral blood mononuclear cells (PBMCs) were isolated by Histopaque (Sigma-Aldrich) density-gradient centrifugation of normal donor blood obtained from the San Diego Blood Bank (San Diego, CA). PBMCs were washed and incubated at 2×10⁷ cells/ml in FACS buffer (PBS, 1% BSA, 0.02% sodium azide) with Human BD Fc Block (2.5 μg/1×10⁶ cells, BD Biosciences) and LIVE/DEAD® Fixable Yellow Dead Cell Stain (30 μl, ThermoFisher Scientific) for 10 minutes on ice. Cells were washed once in FACS buffer, resuspended in FACS buffer at 1×10⁷ cells/ml and the following phenotyping antibodies added: Alexa Fluor 488-anti-human CD3E clone SK7, Brilliant Violet 421-anti-human CD4 clone OKT4, Brilliant Violet 785-anti-human CD8 clone SK1, and Brilliant Violet 570-anti-human CD20 clone 2H7 (50 μl each; all from BioLegend, Inc.). […] Samples were washed twice in FACS buffer, resuspended in 150 μl/well FACS buffer, and analyzed for fluorescence on a NovoCyte Flow Cytometer (ACEA Biosciences, Inc.). Data were analyzed using NovoExpress Software (ACEA Biosciences, Inc.). Median fluorescence intensities of anti-BTLA or isotype staining on gated CD4⁺ T cells (FIG. 4), CD8⁺ T cells (FIG. 4), or CD20⁺ B cells (FIG. 4) were graphed and curves fit with log(agonist) vs. response (three parameters) least squares fit for EC₅₀ calculation in GraphPad Prism (GraphPad Software, Inc.).

Experiment [2] concerns the target T2, cynomolgus monkey BTLA ECD-his (monomeric cynomolgus monkey BTLA-his) (cynomolgus monkey, UniProt A0A2K5W7M7 31-157).
T2 construct: extracellular domain; also called cynomolgus monkey BTLA extracellular domain
T2 sequence: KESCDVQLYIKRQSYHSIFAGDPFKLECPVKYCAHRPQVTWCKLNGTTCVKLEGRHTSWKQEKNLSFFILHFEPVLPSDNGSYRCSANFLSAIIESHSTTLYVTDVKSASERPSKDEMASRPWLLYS
Nature of the experiment: SPR (Biacore T200), antibody captured on anti-human IgG chip, monomeric BTLA-his flowed at 60, 20, 6.7 and 2.2 nM, 1:1 binding model, 25 C [lower right panel (Cyno BTLA]. The method, then:
Surface plasmon resonance (SPR) analyses were carried out using a Biacore T200 (GE Healthcare Life Sciences). Kinetic constants were determined using a 1:1 binding model in the Biacore T200 Evaluation Software to calculate on- and off-rates (kₐ and kd, respectively), and dissociation constants as a measure of overall affinity (KD). Anti-human IgG (GE Healthcare Life Sciences) was immobilized on a CMS chip using EDC-activated amine coupling chemistry (420 seconds contact at a flow rate of 10 μl/min). Antibodies (APE10585.04 6G3 IgG1 and APE10840.05 6G3 IgG4), each at 0.5 μg/m1) were captured in a 60 second contact with the flow cell using a flow rate of 10 μl/min. Monomeric human BTLA-his or cynomolgus monkey BTLA-his at 60 nM, 20 nM, 6.7 nM and 2.2 nM concentrations was flowed over captured antibody (480 seconds association, 1800 seconds dissociation). Runs were at 25° C. and used buffer containing 10 mM HEPES, pH 7.6, 150 mM NaCl, 3 mM EDTA, 0.05% polysorbate 20 (HBS-EP+, pH 7.6; Teknova) for the mobile phase and all dilutions. At the end of each cycle, bound antigen was removed by regeneration with two successive exposures (60 seconds and 90 seconds) to 3 M MgCl2 (30 μl/min). Sensorgrams and binding constants corresponding to the experiment are shown in FIG. 1 (human BTLA) and FIG. 1 (cynomolgus monkey BTLA). Antibody capture levels in resonance units (RU) are listed at the right side of each panel.

B1: 6G3 IgG4 anti-BTLA antibody (APE10840 / APE12839 / APE13308) (antibody, V domains shown)
VH: QVQLVQSGAEVKKPGSSVKVSCKASGYVFSTSWMNWVRQAPGQGLEWMGRIYPGDADTNYVGKFKGRVTITADKSTTTAYMELSSLRSEDTAVYFCAKSGTFNFGNYRWYFDVWGKGTTVTVSS
VL: AIQLTQSPSSLSASVGDRVTITCRVSENIYSHLAWYQQKPGKAPKLLIYAATNLALGVPSRFSGSGSGTDYTLTISSLQPEDFATYYCQLFWGPPLTFGGGTKVEIKR
notes: Humanized antibody from a mouse hybridoma, tested as human IgG4 (detected with anti-human kappa); Some assays used labelled lots (DyLight 650, AF647, biotin, DyL488); also called 6G3 antibody; APE10840.03
With B1, the EC50 in experiment [1] turned out to be 3.23 nM. In experiment [2], this molecule returned a Kd of 11.2 nM, a koff of 0.00393 s⁻¹ and an on-rate (kon) of 351000 M⁻¹ s⁻¹.

The values are drawn from patent US20230391872A1 (ANAPTYSBIO, published 2023).
